Measurements reported in the domain aggregation screens of Martell et al. (2025).

Test: soluble fraction after stress (log2 fold change); higher = more stays soluble; pooled small domains, quantitative proteomics
Settings: stress: 50 degC
In short: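 After stress at 50°C, the amount of each protein still soluble was measured. This was done on pooled custom libraries of small protein domains, using high-throughput quantitative proteomics. The figure given is a base-two log fold change and stands for aggregation propensity, with higher values meaning more protein stays in solution.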

Sequence | soluble fraction (log2)
HMKADIEQVQRAFDTLDPKNQQLVLDAMKAATAELDPNSDQFKTNTEFINDNQKALDRHAKAS | 0.125
HMENSLLSESLAKIYIKTHRYERAYEILSRLSLAVPEKNAYFADQLRFLRKVMLAESFRKQHS | -0.00623
HMAVRLADMAAEKIRKMIIENKFDAGEPLSEMRLAEMFNVSRTPIREAIAILEQEGLLTTVHGKGAFIS | -0.367
HMIGKDLLGYEVFSESGDLVGILKDVMWLPHSDVYVITNGGKELLIPVIPEVVKGINHEQGVIVISPM | 0.0196
HMLPSMENWLGELSFWQTPWWERRDFSTFDNIAQSKEELDEFMSRDDNGAILERMQDPINTIEAE | -0.46
HMLSTQEYIKKNIENGSWKVGEKIPSENNLTEILGVSRASIRVAIQQFIALDVLNSIHGKGTFVKTNNIMG | 0.256
HMGGDFVEHLKDLASEAPVIRLVNTIIGRVIDLRASDIHLEPFDDGLHVRYRVDGVIHPGELVPPRLS | 0.0558
HMSFGFFELKSSDTDKLFAYLNNNEHFGNIKEENGLVTAFLTSELDAQTLNKLLFDNGIIASHLVKRK | -0.51
HMPVYEEEVPAALDGQRLDRVVAMVTGLSRSEVGALLAAGAVTVDGTTPAKGSVRLAAGSIVSVTVS | -0.145
HMSMFTPAQVAQTLTVPPSTLRRWAKRFAPFLSPQSGKKRTYTVADLDTFQRIKELSAQGYTFAQIDQAL | -0.738
HMDAPRFAAGDAVRVAGLVSKPQHNGRAGSVLSYDPVSLRYIVKVDGEDEPLKLKPENVLMPA | 0.136
HMDRMINYSPIVAKVPQDDYTTKVYNIPIYSELTVVDKISEPEPLIAPIYRFKYITPEDEEIEFDIPV | 0.0278
HMDGVSLLFKLMETLPEQQKTILHLRDVEQLEFAEIAKITNTSQANVRVALSRARKKIKDLLLKQY | -2.17
HMPSPSTLAKVDPFLLVTNADSLLMARPDDSELRAAIITAHINLAKTNNSVDHYKEVLKIEPQNALANYN | 0.0175
HMKYLREEDYLPIGSIIRLDDRNFRVDHVNFMFKSVSLQDMDLTNSGQPIFRSESLPHIRELYEQQQNELV | -1.19
HMRISLKAQVYEYLKQAIINGDLKVGEIYSEQYFADKLSISRTPVREAILQLQHENMVEVKANRGIIVK | -0.472
HMSDTSAIEKIIDEVLSDESSQKAINDIKNGNEKVYGFLVGQVMKKSQGKANPGLVQKMLREKIAK | 0.212
HMILNDRSELLDVVKRVIAANPASVADYRKGKKKVLGFLVGQAMKETKGQADPRILNELFLQELGEN | 0.0223
HMTGWINVDKNWYYMNNSGSMARGMINVNNVSYYLDENGKMLSNTTVNVNGTDYRIDASGAMSQI | -0.564
HMSEEGTIPDVSGQDEASAQKALENAGFTNIKSEAVYSEEEQGTVIDTNPTAGTKVSKDTEITMQVSKGSE | -0.34
HMNDAEEKAEAIEGVKNFMANMEKTDIDFKSKESVLLEQVEEIRKNYPVAQWPVIVKQLYNNIGRL | 0.159
HMVAPKTEEQQKMFLESIVTKRQAETLIEKYPNIVQDIIDGTDNVDLANLKGIGEHTYNLIKEKVLSNY | 0.279
HMITNESEIERIVEAIISKNPESIAQYRSGITKVLGFLVGQVMKETKGRANPALVNRIIISKME | -0.281
HMSTSRAEIIAFLKSNPSSEYKHELETKLDEMDWAEAVKGNSEESFLAYKQRQPNGTHNGEADEKLKVLLV | 0.191
HMTQHDIVPLMLKMVDVLTQFVELDIPFLQQERQTRLAALNAMMGRADVSLAEKYRRIMEAYQVETEYG | -0.0938

Sequence | soluble fraction (log2)
HMDTIGSKVLAFLAGNLLDPTPFNYRFGYLYLNRTSKVIVEETDTYIDSGMRMTQEAVAEIMQKFAQ | -3.9
HMTKSTLQRQKIIADLIESGNISSQNQLKGLLKKNSLLITQATLSRDLSELGAIKKRQKDGLLVYVLPK | -0.511
HMSDPSAQADALFNEGKTAEAFNVLLRLIEDSPEDQREDYRVRLLDLFRIAGNTPEVKAARRRLSALLM | -0.252
HMKGLDAAVVDLFKSKGASIVFAGNRLSLSGEVADQATKDELLAKAKAILASLGASVSLDDKLMVKGAKAS | 0.0298
HMEDVLVTQIIQLKHVDANDMKTLFTPLLSRGSSQLLAYPQSNVLIITDTRSNIKKITEILDIIDKS | -0.629
HMNRNEFMERLEYLLSDIPQEEKADAIAYYRDYLEEAGDDAGKAIQDFGSPERIAAMIRSELAG | -0.0703
HMKTILEKDQRLAKYISYLIKRKRLSPEQVIEHLKTDDHGYEKYPKSINTIYAAIDKGLIPSVTRQDM | -0.0163
HMNVRRSRTHEKVTTYQGYDIFINKEPNQRGMFTSAPMRGDNEYSNLRGEGKSKQDAVNMTKEKIDEIAA | 0.403
HMAQLSDDEQAIIDTITRRGDATMSELIASVNVSTPRLMSMLIDMEFRSLITALPGGRYQIRLIN | -0.912
HMELEKIRPDLDGLEIMAILGISPSPIVGRAYQYLLDLRMDRGPLGPDAAKAELLNWWSLNQPK | -1.3
HMDGVYLKSLKQTEQHIHWSGYAQSNAWVSTLMRNLDASPWFESPLLIEIKAATINNSRSNEFDLNVRL | 0.0711
HMGEKVIAVSGGFDPIHVGHLRMMQDAAQHGRLVVIVNSDEWLLKKKGYVFMPWEERAELIGAYDFVDE | -0.977
HMQISDVSLIAKVIDDVIDNNVKSVSDYLEGNLNVLRFLVGQVMKETKGKANPQKATELLQEKLESLNN | -0.429
HMTKASEELYFRLKEELGTGVIVEHKKYGEGVVTQLDDRLVHIMFQDDTLRMMDLKILANAGLLKVK | 0.189
HMPPFDDILAEYYEPLYRHVRRMVVSHDDAKDVMQEAMLRIFQGLDGLKDPSAVRTWVWRIATNEALRH | 0.0662
HMDETYRRQLEDLAREHGAEYLHGILREVDPASAEAIHANNIKRVIRALEFYHLSGKKISEHNETERQ | 0.158
HMTARPTLEKLKYMIHEAGITENSLKVIVATKGHYGLDADISTYSDDFITRWIIPNWTKIVQTISNNK | -0.348
HMDVLSPEEWIEFRTAYNNNRYISQYGSKGATIEDDYATRLAMIGGKESYYFLNDPRWTEPGYGNLK | -0.437
HMSYGKVQFVIDAKDAVLSIDGKETDYEKPVKLTYGSHTITVYSSDYDTWKRNLYVNSEKSTVVINLA | -2.72
HMIGPYAAAKLMTNKDFVKWLSGGVEKSVFNPNSFGQHIRRLVQISEVNPDIRDEINAVVQGLTQ | -0.361
HMETFGEKDLDELIGRNVELITHDGKVREGLVDSVDRYNVSLVRYLDAGEVAMMVRRREVKAVRLK | 0.0419
HMYHADLIGLEARSTAGDKLGEVNAVYNFGAGDLIEIKMTDGNLEMLPFTRQYVPTVSIKDGFIIVQM | -0.628
HMQDREIHIHAGREVLEKELSRLSLHLKNTNLQEYAARFNVKTAEDILAGIGAGDIRPAHVVNLIADKL | 0.0629
HMADYSGYLGKKGKVIAPLRPAGTALIDGERVDVVSFGDYIDKDSEIEVVKIEGSKLLVKKY | 0.141
HMNYTALLNNFSENMKKRRVELSLSQKELASIVGVSVRTIQNYENKKTIPTSAVMESISIALDMGLEKMID | -1.27

Sequence | soluble fraction (log2)
HMLARFSGIALNTWTQADVERTFGPPMLVERVARFDGDIWTYRFMDDYEPRMAHIHIDRAGTVRQLVF | -2.77
HMRVNINVSENILDWVMKRVNPSVLSSKQGELLYAWKEGRKVPTYNQIEKMSKVTGIPLGYFFLEKPPVE | -0.569
HMVLFDLSEREKEVLKLLADGNSYKMIASRLEITYFTVNAHLKKIYEKLQVHSASEAVSVALRNSL | -1.15
HMDTPMYMAIIEEVRFQIANEILKEGEQLPSIRNLAKTLKVSVITVKRAYKELEEAGYITTIPAKGSKVS | -1.43
HMGAISGEQREFYTVFRGHLNSHVGEFKVEDIENLLMKAKTEVPDLLEEEFLKMGEAILNRYRN | -0.0826
HMGSIEASFEEDVRRYLARKSMTTTEISKKMRQKRPDMSRDQLMTLLANAIKRIKPIKKKIKGTLYLSLE | -1.3
HMQETALANFETNEGVQKVKQYVQENVPSLRGSNIVGVWTSYTPEGLTNYRTRFLTQDGQFVEVNLAYQ | 0.036
HMAQVRSTVERRENGTYTVELNLNDDVDNVMRLQLMVATKEMAEDLAQRFQKNPEQVYSQLVTALYG | 0.0631
HMEAEMLYQVKVKITNLVIRSGAGAIYPIVKRYASGVLPIYEEKNGYGKIAVGQWISLSPEFVERVD | -0.385
HMSKQVDVVIYILENTKAADNTYIGTYRKTADGAGVSLDTATKVMRKLQENNFIKKVQNGVYQISPLIMM | -0.889
HMDADRILHKTLKPRELEIYQLIKAYLEEHSQIANAKVQEISGLSEATTRRYLNIFVEFGLLKTS | -0.0476
HMHRFAVLDTVREVAAGGVAATLSIGVGRDADSFDALFKNASMALEMALSRGGDQAVVKDRMNFQFYGG | 0.0659
HMINVLTPKQIEATTIAVKYGYYENPRTVSMRELSEISGIARSTLQEHLSKAEAALMILAAKSQL | -0.338
HMIDFDHADIERLWNSIIHYVPERQKLDFAIDFIKSLEDIGVEHDVLRGSAELDPKLEEAVNTVFE | -0.52
HMALQDKYAELLTAANTMGVTNLAVAEKDGTLHVSGTAKSTADYDSLWALYDKIDPNMASGDLMMNI | 0.0408
HMQQSQLDDIKSVVGGDEGYNKLREWTQANVPDETLKAFDKILDTQDPTMIKVAVEGFAAQMRQAE | -0.36
HMGKAYMVPDVKNKSVNQAQLLLADKHMNGVVVDSSYVKELPAGIVLDQTPVGGMKVKEGRTVYLTINSD | -0.0262
HMPEEGPSEDGNSFTAKFKLGSDVQGAMEQADAAAKAGLQDAGKGTGQITSRAQVGGYIYSTATA | 0.0661
HMRRVRRTRRLLQDGLLGLMQHKAVADISVKELAEAADVARATVYVHFKDPADVLHQLEQGLY | -0.0324
HMTRKQTIYEFLRRMKSQHGLDAVYSTEEIANAVGVSRANVSSDLNRLFEEQLVEKLPGWPVKYRA | 0.0186
HMQPQLFRVIADDGLNIRSGPGPEYPPVAPMLRKGTQVELLQAGDRWSKVEVVGSTDVEGWVNQRYLQAV | 0.0476
HMEEVYVPDIRDKSISDAKKILSQMGLKYRIEGEGYDDSTVIKDQTPKPGALLAKDSVVIAYINE | 0.126
HMEVAAAENYRSKLSSFAKDTISVWQTELLLGTISDDDKASLTEWMAYIKALQVVDTSDPESITWPTEPT | -1.45
HMSTPENLGGRNTAKARISWLENGVKQELESDFPAAEVVKLSSRFGGEVPELTVIRPSLEDIYLKMIG | 0.0409
HMHLTNIPKGFTPSFDTKQWIVEEFGERYNYDNELKIFINHYRASGTTKSDWQYAFRSWLLRAKKFT | -2.32
